# Tests used:
# [1] = Half-life of recombinant PAM in rats (example 10, one-phase decay model); assay type: in vivo; details: example 10, single i.v. dose, FIG. 22
# Method: FIG. 22: Half-life of recombinant PAM in rats, determined from one-phase decay model.
# Endotoxin-free, recombinant PAM (SinoBiological) was buffer exchanged into sterile phosphate buffer saline (PBS, Dulbecco) and adjusted to 50 μg/mL. Sterile ascorbate solution for injection (200 mg/mL, vitamin C 1000, WÖRWAG Pharma) was purchased in a local pharmacy and adjusted under sterile conditions with PBS to 40 mg/mL. For combined injections of PAM and ascorbate, the compounds were prepared separately in equal volumes (100 μg/mL or 80 mg/mL for PAM and ascorbate, respectively). Both compounds were combined directly prior to injection to result in concentrations of 50 μg/mL for PAM and 40 mg/mL for ascorbate. Sterile PBS was used as placebo. All samples were stored at −80° C. until use. Animals, male Wistar rats, 2-3 month of age, were assigned into 4 groups (placebo, ascorbate, PAM, PAM+ascorbate) with 3 animals per group. Each animal in the individual group received 500 μl of the respective compound intravenously as a single dose injection. Blood sampling was performed as Li-Heparin 30 min prior to and 15, 30, 45, 60, 120, 180, 240 and 300 min post injection. PAM activities were determined as described in example 3.
# [2] = tested on: PAM activity; experiment: Circulating PAM activity in rats after intravenous injection of PAM, ascorbate or both, measured without exogenous ascorbate; assay type: in vivo, Wistar rats
# [3] = tested on: circulating ADM-Gly; experiment: bio-ADM increase after administration of recombinant human PAM in rats (example 9); assay type: in vivo, Wistar-rat; details: intravenously administered recombinant human PAM
# Method: Two animals (Wistar-rat, male, 2-3 month of age) received 17 μg of recombinant human PAM (see example 1) as a single dose in a total volume of 500 μl (in phosphate-buffered saline). One control-animal received 500 μl of PBS. Blood sampling (Li-Heparin Plasma) was carried out 30 min prior to application and 30 min, 2 h, 4 h, 8 h, 24 h and 48 h, respectively, after application.
# [4] = tested on: bio-ADM; experiment: Circulating bio-ADM concentration in rats after intravenous injection of PAM, ascorbate or both; assay type: in vivo, Wistar rats
# [5] = tested on: endogenous human ADM-Gly; experiment: Conversion of endogenous ADM-Gly to bio-ADM in human Li-Heparin plasma with exogenous recombinant PAM; assay type: biochemical; details: 37° C.
# Excerpt: ADM-Gly was quantified as based on Weber et al. (Weber et al. 2017. JALM 2(2): 222-233) for bioactive ADM with the following modifications: the tracer-antibody used for ADM-Gly detection, labelled with MACN-acridinium-NHS, was directed to the C-terminal glycine of ADM-Gly. The assay was calibrated with synthetic ADM-Gly. The limit of detection (LOD) was 10 pg/mL of ADM-Gly. Cross-reactivity of antibody directed to the C-terminal glycine of ADM with bio-ADM was in the range between 6 and 50% in a concentration dependent manner. All determined ADM-Gly concentrations were corrected for cross-reactivity as follows: For each ADM-Gly quantification additional quantification of bio-ADM in corresponding samples was performed using the Sphingotest® bio-ADM immunoassay. […] The determined signal (RLU) was used to calculate the false-positive ADM-Gly concentration (pg/mL) using the ADM-Gly calibration curve. This concentration was subtracted from the initially determined ADM-Gly concentration.
# In a further experiment we investigated the formation of bio-ADM from endogenous ADM-Gly by native human plasma PAM and the effect of addition of exogenous recombinant human PAM. […] The concentration of bio-ADM in the reaction sample was quantified using the Sphingotest® bio-ADM immunoassay as described recently (Weber et al. 2017. JALM 2(2): 222-233). […]
molecule,measurement,setting,value
"recombinant human PAM: Recombinant human peptidylglycine alpha-amidating monooxygenase, aa 21-834, SEQ ID No. 10 (Example 1); Example 10 used endotoxin-free recombinant PAM from SinoBiological (protein, listed as Homo sapiens) SPLSVFKRFKETTRPFSNECLGTTRPVVPIDSSDFALDIRMPGVTPKQSDTYFCMSMRIPVDEEAFVIDFKPRASMDTVHHMLLFGCNMPSSTGSYWFCDEGTCTDKANILYAWARNAPPTRLPKGVGFRVGGETGSKYFVLQVHYGDISAFRDNNKDCSGVSLHLTRLPQPLIAGMYLMMSVDTVIPAGEKVVNSDISCHYKNYPMHVFAYRVHTHHLGKVVSGYRVRNGQWTLIGRQSPQLPQAFYPVGHPVDVSFGDLLAARCVFTGEGRTEATHIGGTSSDEMCNLYIMYYMEAKHAVSFMTCTQNVAPDMFRTIPPEANIPIPVKSDMVMMHEHHKETEYKDKIPLLQQPKREEEEVLDQGDFYSLLSKLLGEREDVVHVHKYNPTEKAESESDLVAEIANVVQKKDLGRSDAREGAEHERGNAILVRDRIHKFHRLVSTLRPPESRVFSLQQPPPGEGTWEPEHTGDFHMEEALDWPGVYLLPGQVSGVALDPKNNLVIFHRGDHVWDGNSFDSKFVYQQIGLGPIEEDTILVIDPNNAAVLQSSGKNLFYLPHGLSIDKDGNYWVTDVALHQVFKLDPNNKEGPVLILGRSMQPGSDQNHFCQPTDVAVDPGTGAIYVSDGYCNSRIVQFSPSGKFITQWGEESSGSSPLPGQFTVPHSLALVPLLGQLCVADRENGRIQCFKTDTKEFVREIKHSSFGRNVFAISYIPGLLFAVNGKPHFGDQEPVQGFVMNFSNGEIIDIFKPVRKHFDMPHDIVASEDGTVYIGDAHTNTVWKFTLTEKLEHRSVKKAGIEVQEIKEAEAVVGS",half-life of recombinant human PAM in rats,[1],52.7 min
same,maximal elevation of PAM activity compared to placebo group (factor),[2]; 15 minutes past injection,6
same,PAM activity compared to placebo group,[2]; 120 min past injection,not significantly different
same,time of maximal elevation of PAM activity past injection,[2]; single i.v. injection,15 min
same,elevation of circulating PAM activity,"[2]; single i.v. injection of 500 μl (PAM 50 μg/mL, ascorbate 40 mg/mL), vs placebo",highly significant elevation
same,time PAM activity remained elevated after injection,"[2]; single i.v. injection, significantly elevated for PAM and the combination",60 min
same,time of maximum bio-ADM increase,[3],4 h
same,bio-ADM concentration elevated by the factor (normalized to placebo),[4]; after 15 min,1.8
same,bio-ADM concentration elevated by the factor (normalized to placebo),[4]; after 30 min,2.4
same,bio-ADM concentration elevated by the factor (normalized to placebo),[4]; after 45 min,2
same,bio-ADM concentration elevated by the factor (normalized to placebo),[4]; after 60 min,not significantly different
same,bio-ADM concentration compared to the Placebo group,[4]; after 120 minutes,not significantly different
same,time of maximum bio-ADM increase,"[4]; intravenously administered, example 10",30 min
same,increase of the bio-ADM synthesis rate from endogenous human ADM-Gly (averaged factor),"[5]; 500 ng/ml exogenous recombinant PAM (approximate doubling of PAM concentration) in human Li-Heparin plasma pool with high ADM-Gly, at each time-point, vs native PAM alone",1.8
same,ADM-Gly consumption / shift of ADM-Gly/bio-ADM ratio,[5]; 500 ng/ml exogenous recombinant PAM in human Li-Heparin plasma,faster shift of the ADM-Gly/bio-ADM ratio towards bio-ADM
